These results are taken from patent publication US6875743B1, “Cell adhesion inhibitors” (Biogen, Inc., priority 1996, dated 2005).

* marks the point of attachment. 2‑MPUPA = 4-(N′-(2-methylphenyl)urea)phenylacetyl, Cc1ccccc1NC(=O)Nc1ccc(CC(=O)*)cc1; Bz = O=C(c1ccccc1)*; Ahx = NCCCCCC(=O)O

The labels stand for the following.
B1: Compound 341 (peptide)
peptide: {2‑MPUPA}-LPVD-OH
SMILES: Cc1ccccc1NC(=O)Nc1ccc(CC(=O)N[C@@H](CC(C)C)C(=O)N2CCC[C@H]2C(=O)N[C@H](C(=O)N[C@@H](CC(=O)O)C(=O)O)C(C)C)cc1
B2: Compound 153 (peptide)
peptide: Bz-FLDV-OH
SMILES: CC(C)C[C@H](NC(=O)[C@H](Cc1ccccc1)NC(=O)c1ccccc1)C(=O)N[C@@H](CC(=O)O)C(=O)N[C@H](C(=O)O)C(C)C
B3: Compound 202 (peptide)
peptide: {2‑MPUPA}-K(Ahx)DVP-OH
SMILES: Cc1ccccc1NC(=O)Nc1ccc(CC(=O)N[C@@H](CCCCNC(=O)CCCCCN)C(=O)N[C@@H](CC(=O)O)C(=O)N[C@H](C(=O)N2CCC[C@H]2C(=O)O)C(C)C)cc1
B4: Compound 315 (peptide)
peptide: {2‑MPUPA}-MDVP-OH
SMILES: CSCC[C@H](NC(=O)Cc1ccc(NC(=O)Nc2ccccc2C)cc1)C(=O)N[C@@H](CC(=O)O)C(=O)N[C@H](C(=O)N1CCC[C@H]1C(=O)O)C(C)C
B5: Compound 338 (peptide)
peptide: {2‑MPUPA}-LDVPST-OH
SMILES: Cc1ccccc1NC(=O)Nc1ccc(CC(=O)N[C@@H](CC(C)C)C(=O)N[C@@H](CC(=O)O)C(=O)N[C@H](C(=O)N2CCC[C@H]2C(=O)N[C@@H](CO)C(=O)N[C@H](C(=O)O)[C@@H](C)O)C(C)C)cc1
B6: Compound 339 (peptide)
peptide: {2‑MPUPA}-VLPD-OH
SMILES: Cc1ccccc1NC(=O)Nc1ccc(CC(=O)N[C@H](C(=O)N[C@@H](CC(C)C)C(=O)N2CCC[C@H]2C(=O)N[C@@H](CC(=O)O)C(=O)O)C(C)C)cc1

In the assay the target is T1, α4β1 integrin, very late antigen-4 (VLA-4) (UniProt P13612 34-1032; P05556 21-798, limits assumed).
T1 construct: whole, on cells; also called CD49d/CD29
T1 sequence (P13612 34-1032 limits assumed, chain 1 of 2): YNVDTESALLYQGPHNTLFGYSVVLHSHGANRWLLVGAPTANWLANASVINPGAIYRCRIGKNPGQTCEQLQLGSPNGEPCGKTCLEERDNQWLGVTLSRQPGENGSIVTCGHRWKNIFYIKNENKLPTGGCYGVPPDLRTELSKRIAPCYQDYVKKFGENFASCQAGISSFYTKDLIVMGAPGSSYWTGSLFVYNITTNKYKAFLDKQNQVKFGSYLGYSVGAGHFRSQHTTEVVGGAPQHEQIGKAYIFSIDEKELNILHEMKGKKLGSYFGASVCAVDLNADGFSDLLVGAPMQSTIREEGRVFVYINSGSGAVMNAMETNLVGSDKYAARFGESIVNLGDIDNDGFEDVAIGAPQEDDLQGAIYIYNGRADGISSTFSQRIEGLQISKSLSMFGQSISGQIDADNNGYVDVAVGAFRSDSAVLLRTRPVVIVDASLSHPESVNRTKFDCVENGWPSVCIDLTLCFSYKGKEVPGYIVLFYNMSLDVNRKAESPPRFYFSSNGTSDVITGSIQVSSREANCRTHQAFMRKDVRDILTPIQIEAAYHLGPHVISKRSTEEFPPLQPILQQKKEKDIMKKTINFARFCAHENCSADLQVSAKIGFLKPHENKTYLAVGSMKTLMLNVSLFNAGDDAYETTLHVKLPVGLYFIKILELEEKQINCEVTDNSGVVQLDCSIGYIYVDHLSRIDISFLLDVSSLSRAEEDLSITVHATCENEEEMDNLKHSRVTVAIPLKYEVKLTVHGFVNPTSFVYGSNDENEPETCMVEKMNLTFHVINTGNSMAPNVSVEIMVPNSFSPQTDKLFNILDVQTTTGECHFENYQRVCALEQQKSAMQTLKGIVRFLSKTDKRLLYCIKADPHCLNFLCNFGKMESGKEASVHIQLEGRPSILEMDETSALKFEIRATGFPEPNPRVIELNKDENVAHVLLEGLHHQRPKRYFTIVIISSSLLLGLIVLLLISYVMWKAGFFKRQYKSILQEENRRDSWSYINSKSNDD
T1 sequence (P05556 21-798 limits assumed, chain 2 of 2): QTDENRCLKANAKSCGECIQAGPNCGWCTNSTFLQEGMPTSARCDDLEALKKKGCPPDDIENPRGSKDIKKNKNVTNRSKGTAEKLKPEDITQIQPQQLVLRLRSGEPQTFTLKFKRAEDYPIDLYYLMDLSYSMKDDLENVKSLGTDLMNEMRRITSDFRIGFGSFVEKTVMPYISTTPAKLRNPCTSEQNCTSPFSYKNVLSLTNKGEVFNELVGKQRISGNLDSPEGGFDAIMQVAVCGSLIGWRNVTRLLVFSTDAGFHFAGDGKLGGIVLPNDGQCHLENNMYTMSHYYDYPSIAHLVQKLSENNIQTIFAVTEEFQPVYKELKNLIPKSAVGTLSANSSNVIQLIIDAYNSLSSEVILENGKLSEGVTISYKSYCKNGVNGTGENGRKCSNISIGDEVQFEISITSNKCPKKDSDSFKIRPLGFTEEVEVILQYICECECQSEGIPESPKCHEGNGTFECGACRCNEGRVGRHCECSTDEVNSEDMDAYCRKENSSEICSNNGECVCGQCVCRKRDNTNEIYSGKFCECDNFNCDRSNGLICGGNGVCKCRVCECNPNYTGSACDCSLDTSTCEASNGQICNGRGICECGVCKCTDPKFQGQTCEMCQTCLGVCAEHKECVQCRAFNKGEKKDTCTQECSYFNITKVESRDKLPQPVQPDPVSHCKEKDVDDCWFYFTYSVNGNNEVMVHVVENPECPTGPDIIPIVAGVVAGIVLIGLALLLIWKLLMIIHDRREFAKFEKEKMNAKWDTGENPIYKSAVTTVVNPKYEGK
Kind of assay: inhibition of Ramos cell adhesion to BSA-CS1. As to the method:
Following labelling, the cells were washed twice in assay buffer (24 mM TRIS, 137 mM NaCl, 2.7 mM KCl, pH 7.4, containing 0.1% BSA and 2 mM glucose) to remove any cations originating from the culture medium. The cells were then resuspended in assay buffer to 4×10⁶ cells/mL and 2 mM MnCl_2 was added to upregulate VLA4 on the surface of the cells.
Immediately prior to running the assay, we removed the BSA blocking solution from the 96-well plates and washed the wells with 100 μL of assay buffer. We then added to each well 25 μL of test cell adhesion inhibitory compound at 2× the final concentration and 25 μL of the labelled Ramos cells. […] Each concentration of compound was tested in triplicate. The compound and cells are allowed to incubate for 30 minutes at room temperature.
Percent binding is calculated by the formula: […]
With B1, the 50% inhibitory concentration (IC50) was > 10 µM.
Consider Ac-FLDV-OH [Compound 152], for which the IC50 was > 10 µM.
As to {2‑MPUPA}-LDVPS-OH [Compound 337], the IC50 was < 0.05 µM.
The result for B2 reads > 10 µM.
B3 returned an IC50 of 0.05 to 10 µM.
The same measure for B4: < 0.05 µM.
Take B5: the IC50 was < 0.05 µM.
As to B6, the half-inhibitory concentration (IC50) was > 10 µM.

In general, IC50 refers to the concentration at which inhibition is half-maximal.
